# Results as given in patent publication US20130302348A1 (MIT, published 2013).
# Target: biotinylated H5 (A/Vietnam/1203/2004) HA polypeptide (influenza virus A/Vietnam/1203/2004, UniProt Q8QPL1 17-531)
binder,measurement,value
"exemplary antibody (VH-1 combined with VL-1; Table 4) (antibody, V domains shown, also called exemplary influenza antibody) VH: EVQLLESGGGLVKPGQSLKLSCAASGFTFTSYGMHWVRQPPGKGLEWVAVISYDGSYKYYADSVQGRFTISRDNSKNTLYLQMNSLRAEDTAVYYCAKDSELRSLLYFEWLSQGYFNPWGAGTTLTVSS VL: not shown",Kd,0.03 nM
same,koff,7.38e-06 s⁻¹
same,kon,247000 M⁻¹ s⁻¹
